Assay results: patent US20250207107A1, “LUCIFERASE MUTANT AND USE THEREOF” (DGI TECH (QING DAO) CO., LIMITED, priority 2022, published 2025)

Key:
Type in all cases: biochemical
[1] = Protein activity assay for Pleuromamma xiphia luciferase expressed in prokaryotic cells; conditions: protein expressed in OrigamiB (DE3) or BL21 (DE3), Gluc as control, FIG. 6
Description: The concentration of protein was accurately determined using a BCA quantification kit (Thermo Scientific™ Pierce™ BCA Protein Assay Kit), and the above purified luciferase was diluted with diluent (50 mM Tris-HCl pH 8.0, 100 mM NaCl, 0.1% (v/v) Tween-20). The protein expressed by the pET28a-Pxluc WT plasmid was diluted to 12 μg/ml, and the proteins expressed by the pCold WT Pxluc plasmid and pCold WT-NS Pxluc plasmid were diluted to […]. 10 μL of each protein was added to a black 96-well plate, which was then added with 90 µL of the respective substrates, coelenterazine (purchased from Baiaolaibo), fluorinated coelenterazine, and coelenterazine derivatives ZS2, ZS26 (the structural formula of each compound is shown in FIG. 5) that were diluted to 100 µM with the same solution, and the luminescence intensity was read from the luminescence module with a microplate reader. Gluc expressed in OrigamiB (DE3) competent cells was known to have good luminescence activity, and thus it was used as a control group. […] Therefore, the luminescence activity of Pleuromamma xiphia luciferase without a signal peptide to coelenterazine is similar to that of Gluc to coelenterazine. […] Subsequent experiments were performed with Pleuromamma xiphia luciferase without a signal peptide.

[2] = Substrate specificity assay of purified luciferase, ZS2/F-CTZ luminescence ratio; conditions: for ZS2 luminescence intensity to F-CTZ luminescence intensity: purified prokaryotically expressed luciferase 1 μg/ml, substrates 100 μM, microplate reader
Description: (§1) Protein concentration was accurately determined using the BCA quantification kit (Thermo Scientific™ Pierce™ BCA Protein Assay Kit), and luciferase was diluted to 1 μg/ml with diluent (50 mM Tris-HCl pH 8.0, 100 mM NaCl, 0.1% (v/v) Tween-20) and 10 μL was added to black 96-well plates, which was then added with 90 μL of the respective substrates, coelenterazine (purchased from Baiaolaibo), fluorinated coelenterazine, and coelenterazine derivatives ZS2 and ZS26 that were diluted to 100 μM with the same solution, and the luminescence intensity was read from the luminescence module with a microplate reader. The substrate specificity of the mutants was compared with the activity ratio of ZS2/F-CTZ and ZS26/F-CTZ. Table 10 below lists results of the mutation sites and substrate specificity of ZS26/F-CTZ and ZS2/F-CTZ of the dominant mutant of Pleuromamma xiphia luciferase.
(§2) pEE12.4 Pxluc WT and mutant pEE12.4 Pxluc P26-95, as well as the coupled products SA-Pxluc WT and SA-Pxluc P26-95 were subjected to the activity assay according to the method described in Example 5.

[3] = Substrate specificity assay of purified luciferase, ZS26/F-CTZ luminescence ratio; conditions: for ZS26 luminescence intensity to F-CTZ luminescence intensity: purified prokaryotically expressed luciferase 1 μg/ml, substrates 100 μM, microplate reader
Description: as §1, §2

[4] = Activity assay of Pxluc expressed in eukaryotic cells; conditions: expressed in eukaryotic cells (Expi-CHO); FIG. 12
Description: as §1, §2

ZS2 luminescence intensity to F-CTZ luminescence intensity [2] | substrate specificity for ZS2/F-CTZ ([2]; text summary of Table 10, FIG. 8) | ZS26 luminescence intensity to F-CTZ luminescence intensity [3] | substrate specificity for ZS26/F-CTZ ([3]; text summary of Table 10, FIG. 7) | Molecule | luminescence value / luminescence activity to coelenterazine ([1]; listed as Pleuromamma xiphia luciferase without a signal peptide) | luminescence value / luminescence activity to coelenterazine ([1]; listed as pCold WT NS Pxluc) | activity of catalyzing the substrates ZS2, ZS26 [4]
3.56 | about 3.56 fold | 1.77 | about 1.77 fold | pCold WT-NS Pxluc: wild type Pleuromamma xiphia luciferase without a signal peptide, SEQ ID NO: 4, prokaryotic expression (protein, WT-NS Pxluc) QPTENKQESHIVDSDLDGDRGRKLPGKKLPIEVLKIMEANARRAGCTRGCLICLSKIKCTAKMKRYIPGRCHTYEGDKSIGQGGIGGPIVDIPEIIGFKNMEPMDQFIAQVDLCADCTTGCLKGLANVRCNDLLKKWLPDRCAGFADKIQNEVDSIKGMAGDR | higher activity | highest luminescence value | 
21.808 |  | 23.647 |  | P25-1: Pxluc mutant without signal peptide, G98L, Q99R (SEQ ID NO: 2 numbering) (protein, signal peptide removed; (WT Pxluc)) MYIKVWFGLACLSLVLAQPTENKQESHIVDSDLDGDRGRKLPGKKLPIEVLKIMEANARRAGCTRGCLICLSKIKCTAKMKRYIPGRCHTYEGDKSILRGGIGGPIVDIPEIIGFKNMEPMDQFIAQVDLCADCTTGCLKGLANVRCNDLLKKWLPDRCAGFADKIQNEVDSIKGMAGDR |  |  | 
 |  |  |  | Pxluc WT: wild-type luciferase for eukaryotic expression, with signal peptide, 6×His tag and Avitag (SEQ ID NO: 28) (protein, misc_feature 1..585 pEE12.4) MYIKVWFGLACLSLVLAHHHHHHGSQPTENKQESHIVDSDLDGDRGRKLPGKKLPIEVLKIMEANARRAGCTRGCLICLSKIKCTAKMKRYIPGRCHTYEGDKSIGQGGIGGPIVDIPEIIGFKNMEPMDQFIAQVDLCADCTTGCLKGLANVRCNDLLKKWLPDRCAGFADKIQNEVDSIKGMAGDRGSGLNDI |  |  | had the activity of catalyzing the substrates
